The binders below were run against T1, human NXF1(117-619)-NXT1 heterodimer, wild type (human, UniProt Q9UBU9 117-619; Q9UKK6 1-140). Conditions: both partners purified.
T1 construct: human NXF1 (mRNA export receptor), residues 117-619; human NXT1, coexpressed with NXF1; also called NXF1-NXT1; mRNA export receptor; source: E. coli Rosetta, coexpressed, purified (details in SI Appendix)
T1 sequence (looked up) 1: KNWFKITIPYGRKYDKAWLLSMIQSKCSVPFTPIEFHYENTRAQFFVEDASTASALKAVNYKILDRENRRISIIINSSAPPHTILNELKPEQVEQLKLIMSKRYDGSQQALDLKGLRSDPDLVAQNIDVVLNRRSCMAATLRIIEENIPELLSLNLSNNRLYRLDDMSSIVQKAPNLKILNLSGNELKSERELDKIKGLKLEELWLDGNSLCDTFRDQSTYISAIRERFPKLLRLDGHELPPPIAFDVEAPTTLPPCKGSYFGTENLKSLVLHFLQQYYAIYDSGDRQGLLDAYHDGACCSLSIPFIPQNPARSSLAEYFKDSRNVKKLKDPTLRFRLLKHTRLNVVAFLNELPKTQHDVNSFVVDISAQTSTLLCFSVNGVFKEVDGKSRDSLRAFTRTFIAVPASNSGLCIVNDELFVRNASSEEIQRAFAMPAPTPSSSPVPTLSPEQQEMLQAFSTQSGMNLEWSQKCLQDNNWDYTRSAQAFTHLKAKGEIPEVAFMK
T1 sequence (looked up) 2: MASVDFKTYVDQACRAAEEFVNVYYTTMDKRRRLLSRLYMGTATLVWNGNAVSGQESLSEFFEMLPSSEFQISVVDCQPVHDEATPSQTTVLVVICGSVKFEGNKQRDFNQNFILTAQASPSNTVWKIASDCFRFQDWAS

Binder	binding result
GST-tagged SARS-CoV-2 Nsp1 E55A/E57A/K58E (natural protein) MESLVPGFNEKTHVQLSLPVLQVRDVLVRGFGDSVEEVLSEARQHLKDGTCGLVAVAEGVLPQLEQPYVFIKRSDARTAPHGHVMVELVAELEGIQYGRSGETLGVLVPHVGEIPVAYRKVLLRKNGNKGAGGHSYGADLKSFDLGDELGTDPYEDFQENWNTKHSSGVTRELMRELNGG	binds
GST-tagged SARS-CoV-2 Nsp1 E91K/L92A/E93K/I95A (natural protein) MESLVPGFNEKTHVQLSLPVLQVRDVLVRGFGDSVEEVLSEARQHLKDGTCGLVEVEKGVLPQLEQPYVFIKRSDARTAPHGHVMVELVAKAKGAQYGRSGETLGVLVPHVGEIPVAYRKVLLRKNGNKGAGGHSYGADLKSFDLGDELGTDPYEDFQENWNTKHSSGVTRELMRELNGG	binds
GST-tagged SARS-CoV-2 Nsp1 L27D/V28D (natural protein, also called hydrophobic patch mutant) MESLVPGFNEKTHVQLSLPVLQVRDVDDRGFGDSVEEVLSEARQHLKDGTCGLVEVEKGVLPQLEQPYVFIKRSDARTAPHGHVMVELVAELEGIQYGRSGETLGVLVPHVGEIPVAYRKVLLRKNGNKGAGGHSYGADLKSFDLGDELGTDPYEDFQENWNTKHSSGVTRELMRELNGG	binds
GST-tagged SARS-CoV-2 Nsp1 N-terminal domain (residues 1 to 129) (domain or fragment) MESLVPGFNEKTHVQLSLPVLQVRDVLVRGFGDSVEEVLSEARQHLKDGTCGLVEVEKGVLPQLEQPYVFIKRSDARTAPHGHVMVELVAELEGIQYGRSGETLGVLVPHVGEIPVAYRKVLLRKNGNK	binds

Source: PMC11145185, “Inhibition of mRNA nuclear export promotes SARS-CoV-2 pathogenesis” (Proceedings of the National Academy of Sciences of the …, 2024)
